In FireProtDB (doi:10.1074/jbc.m111.277210):
Several values for one entry are separate records, joined by “and”; a condition that tells them apart may be missing. Identical values can stand only once.

B1: S247A, Q72SM7 (parent)
chain: MKKLSILAISVALFASITACGAFGGLPSLKSSFVLSEDTIPGTNETVKTLLPYGSVINYYGYVKPGQAPDGLVDGNKKAYYLYVWIPAVIAEMGVRMISPTGEIGEPGDGDLVSDAFKAATPEEKSMPHWFDTWIRVERMSAIMPDQIAKAAKAKPVQKLDDDDDGDDTYKEERHNKYNSLTRIKIPNPPKSFDDLKNIDTKKLLVRGLYRISFTTYKPGEVKGSFVASVGLLFPPGIPGVSPLIHSNPEELQKQAIAAEESLKKAASDATK

Variants of: B1
Conditions: Leptospira interrogans serogroup Icterohaemorrhagiae serovar copenhageni (strain Fiocruz L1-130); pH 8; Thermal; CD; Tris-HCl; KCl; structure 3FRL; whole UniProt chain shown

Variant | change of melting temperature, mutant - wild type (higher = more stable) | Tm
S247A | 0 °C and -1 °C | –
Q67A | 0 °C | –
D163A D164A D165A G166A D167A D168A | – | 51 °C and 52 °C
